From patent publication US20080292641A1 (MORPHOTEK, published 2008) come the findings set out here.

The target of this experiment is TT (tetanus toxin / tetanus toxoid) (UniProt P04958 2-1315). Description: ELISA of hybridoma clones.
Sequence of TT (tetanus toxin / tetanus toxoid) (P04958 2-457 limits assumed, chain 1 of 2): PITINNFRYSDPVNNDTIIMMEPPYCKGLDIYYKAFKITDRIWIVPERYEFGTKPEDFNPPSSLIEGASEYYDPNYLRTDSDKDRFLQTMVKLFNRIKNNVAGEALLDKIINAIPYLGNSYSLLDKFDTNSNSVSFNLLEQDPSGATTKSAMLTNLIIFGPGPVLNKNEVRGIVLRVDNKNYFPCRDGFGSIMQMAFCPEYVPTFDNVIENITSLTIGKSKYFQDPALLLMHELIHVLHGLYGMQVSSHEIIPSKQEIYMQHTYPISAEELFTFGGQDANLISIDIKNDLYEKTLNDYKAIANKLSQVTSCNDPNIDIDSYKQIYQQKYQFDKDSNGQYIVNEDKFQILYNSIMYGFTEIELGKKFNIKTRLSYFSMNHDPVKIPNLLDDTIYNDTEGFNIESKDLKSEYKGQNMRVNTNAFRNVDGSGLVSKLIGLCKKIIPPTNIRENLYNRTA
Sequence of TT (tetanus toxin / tetanus toxoid) (P04958 458-1315 limits assumed, chain 2 of 2): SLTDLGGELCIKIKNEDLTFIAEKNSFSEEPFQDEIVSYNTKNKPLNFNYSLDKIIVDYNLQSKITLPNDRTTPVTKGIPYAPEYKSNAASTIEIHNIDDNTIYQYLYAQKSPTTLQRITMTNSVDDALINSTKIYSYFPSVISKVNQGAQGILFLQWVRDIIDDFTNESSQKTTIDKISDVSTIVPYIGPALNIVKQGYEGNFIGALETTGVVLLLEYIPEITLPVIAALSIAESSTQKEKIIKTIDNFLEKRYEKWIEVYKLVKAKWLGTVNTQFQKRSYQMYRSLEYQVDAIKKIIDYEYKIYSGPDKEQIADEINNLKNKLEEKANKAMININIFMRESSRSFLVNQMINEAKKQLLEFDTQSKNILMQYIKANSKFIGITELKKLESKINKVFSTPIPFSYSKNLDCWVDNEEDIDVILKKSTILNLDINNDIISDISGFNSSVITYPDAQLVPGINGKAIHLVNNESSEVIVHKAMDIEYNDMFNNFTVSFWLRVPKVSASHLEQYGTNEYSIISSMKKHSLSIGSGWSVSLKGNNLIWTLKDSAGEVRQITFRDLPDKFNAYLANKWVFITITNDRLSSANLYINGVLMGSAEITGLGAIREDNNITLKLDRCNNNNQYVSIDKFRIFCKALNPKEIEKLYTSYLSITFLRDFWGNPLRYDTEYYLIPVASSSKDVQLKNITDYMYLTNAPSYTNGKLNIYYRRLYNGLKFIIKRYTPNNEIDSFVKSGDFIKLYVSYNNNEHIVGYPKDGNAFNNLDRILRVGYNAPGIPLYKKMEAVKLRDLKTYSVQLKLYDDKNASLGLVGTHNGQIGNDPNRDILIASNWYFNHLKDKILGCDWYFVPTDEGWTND

B1: anti-GM-CSF human IgG1 monoclonal antibody G9 (antibody, V domains shown)
VH: EVQLVESGGGLVQPGGSLRLSCAASGFTFSRHWMHWLRQVPGKGPVWVSRINGAGTSITYADSVRGRFTISRDNANNTLFLQMNSLRADDTALYFCARANSVWFRGLFDYWGQGTPVTVSS
VL: EIVLTQSPVTLSVSPGERVTLSCRASQSVSTNLAWYQQKLGQGPRLLIYGASTRATDIPARFSGSGSETEFTLTISSLQSEDFAVYYCQQYDKWPDTFGQGTKLEIKR
notes: Fully human IgG1 kappa made by a hybridoma from B cells of a PAP patient; also called 10G9; 10G9.1
For B1, the binding result is “no binding”.

B2: anti-GM-CSF human IgG1 monoclonal antibody E10 (antibody, V domains shown)
VH: QVQLEESGGGVVQPGRSLRLSCAASGFTFTNYGMHWVRQAPGKGLEWLALISYDGNRQYYADSVKGRFTVSRDNPNNTLHLEMKSLRAEDSAIYYCARGAGVLLWFGDLSWFDPWGQGTLVTVSS
VL: DIQMTQSPSNLSASVGDRVTITCRASQNINTWLAWYQHKPGKPPKLRIYQASTLESGVPSRFSGSGSGTIFTLTISSLQPDDFGTYYCQQNNSYPYTFGQGTKLEINR
notes: Fully human IgG1 kappa made by a hybridoma from B cells of a PAP patient; also called 4E10; E10.20
Take B2: the binding result is on record as “no binding”.
